This is an account of results in article PMC7159914.

The data set has as its target VP3 (capping enzyme) (Rotavirus A, UniProt Q1WK45 1-835). Briefly: BLI.

On to GGCUUUUA (ssRNA) [biotinylated 8-mer ssRNA], for which the binding result is listed as “binds”.
